According to PMC11677724, “Preclinical Study of a Dual-Target Molecular Probe Labeled with ^68Ga Targeting SSTR2 and FAP” (Pharmaceuticals, 2024):
Like-named read-outs stand apart in the source and are kept apart here.

Assays:
[1] = test system: MC38 cells (SSTR2/FAP, negative); test: Cell uptake in MC38 cells (negative control); assay type: cell-based; settings: 1.48×10^4 Bq/well, all time points, all p < 0.001
Method: (§1) The NCI-H727 and Mc38 cell lines were supplied by the Stem Cell Bank of the Chinese Academy of Sciences and were cultivated in Roswell Park Memorial Institute (RPMI-1640) medium with 10% (v/v) fetal bovine serum (FBS) at 37 °C with 5% CO2. All cells were cultured until they reached 80–90% confluence before undergoing trypsinization.
(§2) In blocking experiments, an excessive amount of unlabeled FAPI-46, DOTA-TATE, or FAPI-46 + DOTA-TATE (10 µg/well) was added as an inhibitor along with [^68Ga]Ga-TATE-46 to the cells. After 1 h, the cells were processed using the same method. Finally, the cell lysates were gathered, and the radioactivity was measured using a γ-counter. Mc38 cells were used as a negative control, with only [^68Ga]Ga-TATE-46 (1.48 × 10^4 Bq/well, 100 µL) added, and the rest of the procedure was followed as described above.

[2] = Ex vivo biodistribution in NCI-H727 tumor-bearing mice; settings: female, BALB/c nude, mouse, in vivo, 1.48 MBq, total radioactivity, γ-counter, mean ± SD, n=3; for tissue uptake at 0.5 h: 0.5 h p.i.; for tissue uptake at 1 h: 1 h p.i.; for tissue uptake at 2 h: 2 h p.i.; for tissue uptake at 4 h: 4 h p.i.
Method: (§3) Female BALB/c nude mice were obtained from Charles River Laboratories (Beijing, China). […] Approximately 5 × 10^6 cells were implanted into the right shoulder of each mouse to establish an NCI-H727 tumor model and Mc38 tumor model. Once the tumor volume reached 200–300 mm^3, the mice were used for imaging or biodistribution studies. All animal experiments were carried out in accordance with the National Institutes of Health Guidelines for the Care and Use of Laboratory Animals and were approved by the Animal Protection and Utilization Committee of the General Hospital of the PLA (Approval No.: S2023-209-1).
The NCI-H727 tumor-bearing mice were randomly assigned to four groups (with three mice in each group) and were injected with [^68Ga]Ga-TATE-46 (1.48 MBq, 100 µL). The mice were put to death at 0.5, 1, 2, and 4 h post-injection (p.i.). The tissues and organs of concern were gathered, weighed, and measured for radioactivity using a γ-counter. Additionally, [^68Ga]Ga-DOTA-TATE and [^68Ga]Ga-FAPI-46 were used as control groups in the biodistribution study of the NCI-H727 tumor model at 1 h p.i. After performing time decay correction, the radiotracer uptake in each tissue and organ was calculated as %ID/g.

[3] = test system: NCI-H727 tumor-bearing mice; test: Micro PET imaging with ROI quantification and blocking, NCI-H727 tumor-bearing mice; assay type: in vivo, BALB/c nude mice
Method: as §3
(§4) Each set of NCI-H727 tumor xenograft models (n = 3) was administered with [^68Ga]Ga-TATE-46, [^68Ga]Ga-DOTA-TATE, or [^68Ga]Ga-FAPI-46 (5.55–7.4 MBq, 150 µL/mouse) through the tail vein. Static PET scans were performed at 30 min, 1 h, 2 h, and 4 h after injection for 10 min each. In blocking studies, unlabeled precursors (FAPI-46, DOTA-TATE, FAPI-46 + DOTA-TATE, 10 mg/kg) were co-injected with [^68Ga]Ga-TATE-46. After image acquisition, the images were reconstructed using the three-dimensional ordered subset expectation maximization (3D-OSEM) algorithm and analyzed on the Recon/Avator-s-10 workstation. The percentage of injected dose per gram of tissue (%ID/g) was determined by delineating regions of interest.

[4] = In vitro stability in physiological saline/PBS or FBS, radio-HPLC; assay type: in vitro ADME; settings: 1.85 MBq in 5 µL, 37 °C, 2 h
Method: A measure of 5 µL of [^68Ga]Ga-TATE-46 (1.85 MBq) was added to 300 µL of PBS or FBS and incubated at 37 °C for 2 h. Subsequently, the radiochemical purity was determined using HPLC.

[5] = Micro PET imaging with ROI quantification, MC38 tumor-bearing mice; assay type: in vivo; settings: female, BALB/c nude, mouse, iv, total radioactivity, 1 h p.i., 5.55–7.4 MBq tail vein, MC38 tumors (SSTR2/FAP, negative), read-out: uptake in MC38 tumors (ROI quantitative analysis of PET images)
Method: as §3, §4

[6] = test system: NCI-H727 cells (SSTR2/FAP, positive); test: Cell uptake and blocking in NCI-H727 cells; assay type: cell-based; settings: 1 h
Method: as §1
NCI-H727 cells were placed in a 24-well plate and cultivated for 24 h. The original medium was removed, and fresh RPMI-1640 was added. Then, 100 µL of [^68Ga]Ga-TATE-46, [^68Ga]Ga-DOTA-TATE, or [^68Ga]Ga-FAPI-46 (1.48×10^4 Bq) was added to each well, and the cells were incubated for 30 min, 1 h, 2 h, and 4 h (with three replicates for each time point). The culture medium was taken away, and the cells were washed twice with cold PBS (pH 7.4). Then, the cells were lysed using 0.5 mL of 1 M NaOH.
as §2

[7] = NCI-H727 tumor, read-out: Biodistribution, Tumor (tumor uptake)
[8] = NCI-H727 tumor-bearing mice, read-out: Biodistribution, Blood
[9] = NCI-H727 tumor-bearing mice, read-out: Biodistribution, Bone
[10] = NCI-H727 tumor-bearing mice, read-out: Biodistribution, Brain
[11] = NCI-H727 tumor-bearing mice, read-out: Biodistribution, Heart
[12] = NCI-H727 tumor-bearing mice, read-out: Biodistribution, Intestine
[13] = NCI-H727 tumor-bearing mice, read-out: Biodistribution, Kidney
[14] = NCI-H727 tumor-bearing mice, read-out: Biodistribution, Liver
[15] = NCI-H727 tumor-bearing mice, read-out: Biodistribution, Lung
[16] = NCI-H727 tumor-bearing mice, read-out: Biodistribution, Muscle
[17] = NCI-H727 tumor-bearing mice, read-out: Biodistribution, Spleen
[18] = NCI-H727 tumor-bearing mice, read-out: Biodistribution, Stomach

## C[C@@H](O)[C@H](NC(=O)[C@@H]1CSSC[C@H](NC(=O)[C@@H](Cc2ccccc2)NC(=O)CCCCCNC(=O)CCCCCNC(=O)[C@H](Cc2ccccc2)NC(=O)C(CCC(=O)N[C@@H](Cc2ccccc2)C(=O)NCCCCCC(=O)NCCCCCC(=O)N2CCN(CCCN(C)c3ccc4nccc(C(=O)NCC(=O)N5CC(F)(F)C[C@H]5C#N)c4c3)CC2)NC(=O)CN2CCN(CC(=O)O)CCN(CC(=O)O)CCN(CC(=O)O)CC2)C(=O)N[C@@H](Cc2ccc(O)cc2)C(=O)N[C@H](Cc2c[nH]c3ccccc23)C(=O)N[C@@H](CCCCN)C(=O)N[C@@H]([C@@H](C)O)C(=O)N1)C(=O)O (some centres unmarked) [[^68Ga]Ga-TATE-46, metal not drawn]
[1]
  cellular uptake in MC38 cells compared to NCI-H727 cells: significantly lower
[2]; [7]
  tissue uptake at 0.5 h: 3.56 ± 0.69 %ID/g
  tissue uptake at 1 h: 7.53 ± 1.13 %ID/g
  tissue uptake at 2 h: 7.08 ± 0.88 %ID/g
  tissue uptake at 4 h: 6.48 ± 1.82 %ID/g
[2]; [8]
  tissue uptake at 0.5 h: 13.5 ± 2.03 %ID/g
  tissue uptake at 1 h: 11.3 ± 2.53 %ID/g
  tissue uptake at 2 h: 6.13 ± 0.61 %ID/g
  tissue uptake at 4 h: 4.09 ± 0.21 %ID/g
[2]; [9]
  tissue uptake at 0.5 h: 4.84 ± 0.25 %ID/g
  tissue uptake at 1 h: 4.8 ± 1.08 %ID/g
  tissue uptake at 2 h: 4.65 ± 0.87 %ID/g
  tissue uptake at 4 h: 4.49 ± 0.06 %ID/g
[2]; [10]
  tissue uptake at 0.5 h: 0.37 ± 0.06 %ID/g
  tissue uptake at 1 h: 0.36 ± 0.03 %ID/g
  tissue uptake at 2 h: 0.23 ± 0.04 %ID/g
  tissue uptake at 4 h: 0.24 ± 0.02 %ID/g
[2]; [11]
  tissue uptake at 0.5 h: 4.71 ± 0.3 %ID/g
  tissue uptake at 1 h: 4.15 ± 0.83 %ID/g
  tissue uptake at 2 h: 2.41 ± 0.35 %ID/g
  tissue uptake at 4 h: 1.9 ± 0.09 %ID/g
[2]; [12]
  tissue uptake at 0.5 h: 4.58 ± 2.16 %ID/g
  tissue uptake at 1 h: 3.74 ± 0.72 %ID/g
  tissue uptake at 2 h: 2.85 ± 1.12 %ID/g
  tissue uptake at 4 h: 1.82 ± 1.11 %ID/g
[2]; [13]
  tissue uptake at 0.5 h: 23.9 ± 8.92 %ID/g
  tissue uptake at 1 h: 37 ± 3.89 %ID/g
  tissue uptake at 2 h: 26.5 ± 4.77 %ID/g
  tissue uptake at 4 h: 22.4 ± 6.23 %ID/g
[2]; [14]
  tissue uptake at 0.5 h: 10 ± 2.51 %ID/g
  tissue uptake at 1 h: 10.5 ± 2.84 %ID/g
  tissue uptake at 2 h: 8.4 ± 0.12 %ID/g
  tissue uptake at 4 h: 8.08 ± 0.87 %ID/g
[2]; [15]
  tissue uptake at 0.5 h: 7.03 ± 1.58 %ID/g
  tissue uptake at 1 h: 5.51 ± 0.97 %ID/g
  tissue uptake at 2 h: 3.67 ± 0.68 %ID/g
  tissue uptake at 4 h: 2.69 ± 0.17 %ID/g
[2]; [16]
  tissue uptake at 0.5 h: 2.4 ± 0.48 %ID/g
  tissue uptake at 1 h: 2.39 ± 0.49 %ID/g
  tissue uptake at 2 h: 2.36 ± 0.14 %ID/g
  tissue uptake at 4 h: 2.36 ± 0.32 %ID/g
[2]; [17]
  tissue uptake at 0.5 h: 4.48 ± 0.72 %ID/g
  tissue uptake at 1 h: 4.01 ± 0.79 %ID/g
  tissue uptake at 2 h: 3.05 ± 0.38 %ID/g
  tissue uptake at 4 h: 3.04 ± 0.09 %ID/g
[2]; [18]
  tissue uptake at 0.5 h: 6.84 ± 0.73 %ID/g
  tissue uptake at 1 h: 6.68 ± 0.95 %ID/g
  tissue uptake at 2 h: 6.18 ± 0.43 %ID/g
  tissue uptake at 4 h: 5.05 ± 0.01 %ID/g
[3]; 5.55–7.4 MBq, 30 min-4 h p.i., n = 3, p < 0.001
  tumor uptake in NCI-H727 tumors (PET ROI) compared with [68Ga]Ga-FAPI-46 and [68Ga]Ga-DOTA-TATE: significantly higher
[3]; blockers 10 μg/g each, NCI-H727 tumors, 1 h p.i., all p < 0.001
  tumor uptake (PET) on co-injection with blocking agents DOTA-TATE, FAPI-46, or DOTA-TATE + FAPI-46: significantly reduced
[4]; 300 µL FBS
  In vitro stability in FBS (HPLC chromatogram): only one peak
[4]; physiological saline (method: 300 µL PBS)
  In vitro stability in physiological saline (HPLC chromatogram): only one peak
[5]
  tissue uptake at 1 h: 2.05 ± 0.09 %ID/g
[6]; 1.48×10^4 Bq/well, 30 min, 2 h, 4 h, γ-counter, n = 3, all p < 0.001
  cellular uptake in NCI-H727 cells compared with [68Ga]Ga-DOTA-TATE and [68Ga]Ga-FAPI-46: significantly higher
[6]; blocker at 1000 times the molar amount (10 µg/well), all p < 0.01
  cellular uptake in NCI-H727 cells on co-incubation with unlabeled TATE, FAPI-46, or TATE + FAPI-46: significant reduction
